In the supplement of paper PMC9732359:
± gives the uncertainty stated by the source.

assay: protein stability index of a GFP-peptide fusion (yeast GPS) (PSI 1-4); higher = more stable; sorted into four equal gates, so the index is relative within each strain; conditions: ubr1∆
Summary of the method: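 Each library plasmid carries Cherry plus GFP with a tiled 17-residue yeast protein peptide fused downstream, and the pooled library was carried in yeast. Mid-log cultures in leucine-free medium were sorted into four equal gates by GFP/Cherry ratio. Reads from Illumina sequencing of PCR-amplified plasmids from each gate were assigned to strains by barcodes. Per peptide, the protein stability index was computed as the summed products of gate read frequency and gate number.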

Q: With ETTTEEDSENPSDWQRN [ITC1] as the sequence, how does the protein stability index read?
A: 3.38 ± 0.083

Q: Which protein stability index does the source give for EVALFSQKAKLMTFNAE [YLR335W/NUP2] here?
A: 1.4 ± 0.085

Q: Which protein stability index does the source give for EVAQLGSLACDTADEAK [RPB4] here?
A: 2.73 ± 0.11

Q: With EVDYEDKDNPVDSRNET [SRB4] as the sequence, how does the protein stability index read?
A: 3.33 ± 0.25

Q: Which protein stability index does the source give for EVEVSTRDLFDLEKDRA [RPO31] here?
A: 3.23 ± 0.048

Q: Which protein stability index does the source give for EVIFSFEGTPPFSLTYV [YMR129W/POM152] here?
A: 2.25 ± 0.047

Q: For EVKEQLGILKKKRFDEF [SMC4], which protein stability index is on record?
A: 3.03 ± 0.12

Q: With EVQCTSTPYLEILVEES [PCI8] as the sequence, how does the protein stability index read?
A: 2.64 ± 0.083

Q: Which protein stability index does the source give for EVSTSTSMTGDANLLEE [SWI3] here?
A: 3.3 ± 0.041

Q: With EVTEEQAEATEWAEENA [RPS0A] as the sequence, how does the protein stability index read?
A: 3.62 ± 0.095

Q: Which protein stability index does the source give for EVVEAVTVVDTPPVVVV [RPL3] here?
A: 1.47 ± 0.036

Q: Which protein stability index does the source give for EVYEALKEVLYNDSATS [RPN2] here?
A: 3.46 ± 0.08

Q: With EVYMRYRNFMVNSYRLN [SWI3] as the sequence, how does the protein stability index read?
A: 1.44 ± 0.097

Q: With EVYTKTIEVLDEVITEG [POP7] as the sequence, how does the protein stability index read?
A: 3.03 ± 0.067

Q: With EWVKLHRLLQRALFRQL [RMP1] as the sequence, how does the protein stability index read?
A: 2.16 ± 0.14

Q: With EYEKRNHGGSLGKYDLT [SRP68] as the sequence, how does the protein stability index read?
A: 1.3 ± 0.14

Q: For EYIFEAHEIIKREEKAM [CDC53], which protein stability index is on record?
A: 2.28 ± 0.043

Q: With EYLFKPQLISDKFSPED [ARP7] as the sequence, how does the protein stability index read?
A: 2.17 ± 0.041

Q: Which protein stability index does the source give for EYLKRVSVPVSGQKTNR [SIR3] here?
A: 2.83 ± 0.16

Q: With EYMKRHPTTIESLREIP [SEC65] as the sequence, how does the protein stability index read?
A: 3.06 ± 0.06

Q: With EYRDLYTNSVELRSLSK [YMR129W/POM152] as the sequence, how does the protein stability index read?
A: 2.79 ± 0.29

Q: For EYSDNFPVSLSQPSKKS [SIR4], which protein stability index is on record?
A: 3.1 ± 0.031

Q: Which protein stability index does the source give for FAEENITHKLTKNDAGS [BRR2] here?
A: 3.46 ± 0.1

Q: For FAGEAGDTVQFAEYIQA [PRE1], which protein stability index is on record?
A: 2.09 ± 0.054

Q: For FAIRDDRDHINPDDLMK [RPT4], which protein stability index is on record?
A: 3.33 ± 0.11

Q: Which protein stability index does the source give for FAQENSELAVATTSVMM [SRB6] here?
A: 3.33 ± 0.11

Q: With FAQGKRRYDRKQSGFGG [RPL42A] as the sequence, how does the protein stability index read?
A: 3.34 ± 0.061

Q: For FASNKKINDESSIDKKS [YML103C/NUP188], which protein stability index is on record?
A: 3.14 ± 0.067

Q: For FATTKAECISLICSIGL [ECM29], which protein stability index is on record?
A: 1.77 ± 0.05

Q: With FAVIYLCDIDEVSDFDE [DIB1] as the sequence, how does the protein stability index read?
A: 1.64 ± 0.14

Q: With FDEFMNVVIDEAVEIPV [SME1] as the sequence, how does the protein stability index read?
A: 2.9 ± 0.045

Q: Which protein stability index does the source give for FDIYNRDRKLITDKGTV [YJL039C/NUP192] here?
A: 2.96 ± 0.083

Q: With FDPFQAVSRSMTDIWNT [ECM29] as the sequence, how does the protein stability index read?
A: 2.75 ± 0.071

Q: With FDQSTNVKVIMATNRAD [RPT3] as the sequence, how does the protein stability index read?
A: 2.02 ± 0.051

Q: For FDRHCNMVLENVKELWT [SMD2], which protein stability index is on record?
A: 2.03 ± 0.1

Q: For FDYMNRYWVQKERSDGK [CDC53], which protein stability index is on record?
A: 2.57 ± 0.18

Q: For FEEDEKNSDVWFLDHNY [RPN8], which protein stability index is on record?
A: 1.48 ± 0.084

Q: With FEGCYYTPEESAWIWPM [RPC25] as the sequence, how does the protein stability index read?
A: 2.52 ± 0.13

Q: Which protein stability index does the source give for FEGNALIRRLVRVGVLS [RPS9A] here?
A: 1.15 ± 0.17

Q: Which protein stability index does the source give for FEGVTHRWGTKKLPRKT [RPL3] here?
A: 3.34 ± 0.061

Q: With FEIIDEASKKSAVKPRP [FAS1] as the sequence, how does the protein stability index read?
A: 3.3 ± 0.066

Q: For FEIQGVPPMKLAYSKIV [YMR129W/POM152], which protein stability index is on record?
A: 1.74 ± 0.062

Q: Which protein stability index does the source give for FERFPSPSTSANVPSTA [RPN4] here?
A: 2.36 ± 0.039

Q: With FESLYNSNDSVFVGSGK [BRR2] as the sequence, how does the protein stability index read?
A: 3.15 ± 0.11

Q: Which protein stability index does the source give for FFAAIRFVLSDDYSNLK [SMC3] here?
A: 2.7 ± 0.07

Q: With FGAKPEEQKSSDTSKPA [YJL041W/NSP1] as the sequence, how does the protein stability index read?
A: 3.11 ± 0.09

Q: Which protein stability index does the source give for FGDTKSESKQLGNTSSV [SWI3] here?
A: 3.35 ± 0.05

Q: Which protein stability index does the source give for FGHIMEDFQVLRLGRGI [YDL088C/ASM4] here?
A: 2.96 ± 0.044

Q: Which protein stability index does the source give for FGRTLASVTKEILGTAQ [RPL12A] here?
A: 1.62 ± 0.078

Q: With FGVTKARWPAKSVKFVQ [RPL17A] as the sequence, how does the protein stability index read?
A: 3.05 ± 0.059

Q: With FHSTYLMNGVKPFKSFL [FAS1] as the sequence, how does the protein stability index read?
A: 2.87 ± 0.068

Q: For FIAVGQILPESQWNDSS [SIR3], which protein stability index is on record?
A: 2.71 ± 0.097

Q: For FIERNFTPQEIEYCSAQ [FAS2], which protein stability index is on record?
A: 2.73 ± 0.22

Q: For FIKFKLIQQVPPGLDAL [CDC53], which protein stability index is on record?
A: 2.27 ± 0.095

Q: Which protein stability index does the source give for FIRVIGSELVQKYVGEG [RPT1] here?
A: 2.84 ± 0.05

Q: Which protein stability index does the source give for FISSGTSLLDSLISVLE [YJL039C/NUP192] here?
A: 1.91 ± 0.047

Q: With FITFSLDDWISIGYETE [IRR1] as the sequence, how does the protein stability index read?
A: 2.6 ± 0.071

Q: Which protein stability index does the source give for FITRLAQGLLHLGKGTM [RPN1] here?
A: 2.23 ± 0.074

Q: For FIVVPDLLKNAPLFKKN [SMD3], which protein stability index is on record?
A: 1.32 ± 0.035

Q: Which protein stability index does the source give for FIYKKVLKEKDVPAYNV [SRB8] here?
A: 3.13 ± 0.042

Q: For FKELCYENKDNLTAGII [PRE3], which protein stability index is on record?
A: 2.83 ± 0.039

Q: With FKGALTIKILPENTAMF [YMR129W/POM152] as the sequence, how does the protein stability index read?
A: 2.25 ± 0.05

Q: For FKGVIVKIVDKDGIRQV [PRE1], which protein stability index is on record?
A: 3.13 ± 0.092

Q: Which protein stability index does the source give for FKHISVKDFTSLGFNEV [RPO21] here?
A: 2.25 ± 0.044

Q: For FKLVSTPSSNSNSSELE [MED1], which protein stability index is on record?
A: 2.84 ± 0.046

Q: With FKQSNSETFLQFYVKRW [CDC53] as the sequence, how does the protein stability index read?
A: 2.76 ± 0.1

Q: For FKRNAVFVGTIFAGAFV [QCR9], which protein stability index is on record?
A: 1.67 ± 0.051

Q: Which protein stability index does the source give for FKVQELLHSKPSLLLQK [NAS6] here?
A: 2.31 ± 0.084

Q: With FKYIYELILAGAIDEAL [YDL116W/NUP84] as the sequence, how does the protein stability index read?
A: 1.52 ± 0.067

Q: For FKYVEDRFPLKLREPVA [ITC1], which protein stability index is on record?
A: 2.73 ± 0.093

Q: With FLDGIYVSHKGFITEDL [RPL9A] as the sequence, how does the protein stability index read?
A: 3.29 ± 0.07

Q: Which protein stability index does the source give for FLDYTTDNVSMYPSPTG [PRP8] here?
A: 2.95 ± 0.057

Q: With FLERKCVHMVYEYAEHD [SSN3] as the sequence, how does the protein stability index read?
A: 1.83 ± 0.046

Q: Which protein stability index does the source give for FLGYKAGMTTIVRDLDR [RPL3] here?
A: 3.14 ± 0.1

Q: Which protein stability index does the source give for FLIIVPKSTLDNWRREF [ISW2] here?
A: 1.99 ± 0.22

Q: Which protein stability index does the source give for FLKERLMEASDAFRVHI [RPB2] here?
A: 1.74 ± 0.1

Q: Which protein stability index does the source give for FLKKLRNEQVTIELKNG [SMD1] here?
A: 2.67 ± 0.039

Q: With FLLRRVKADVEKSLLPK [ISW2] as the sequence, how does the protein stability index read?
A: 2.94 ± 0.1

Q: For FLPFNNSASNNGNLTSN [SWI1], which protein stability index is on record?
A: 2.9 ± 0.099

Q: Which protein stability index does the source give for FLPKLNSVRNSLLLAHF [NUT1] here?
A: 1.81 ± 0.029

Q: With FLQHPDEEYPVKVKVSY [PRP8] as the sequence, how does the protein stability index read?
A: 2.63 ± 0.063

Q: Which protein stability index does the source give for FLTVSKLWAEIIVKILY [GRR1] here?
A: 1.37 ± 0.048

Q: With FMKSVIRSREAFSYEQA [DIS3] as the sequence, how does the protein stability index read?
A: 2.71 ± 0.12

Q: With FNAPATGNGTTTTSNTS [YOR098C/NUP1] as the sequence, how does the protein stability index read?
A: 2.836 ± 0.027

Q: For FNDFSNIKTSEWDLYPQ [REC8], which protein stability index is on record?
A: 3.15 ± 0.082

Q: With FNGAQLKAVTVEAGMIA [RPT5] as the sequence, how does the protein stability index read?
A: 2.03 ± 0.19

Q: With FNGYNPEKKEMIQEVIV [FAS2] as the sequence, how does the protein stability index read?
A: 3.4 ± 0.11

Q: With FNSFRRFKSQFLYVLIP [QCR8] as the sequence, how does the protein stability index read?
A: 1.4 ± 0.054

Q: For FNVVDVGVDQLSIELEG [YJL039C/NUP192], which protein stability index is on record?
A: 3.37 ± 0.049

Q: Which protein stability index does the source give for FNYVQECPAIPIFNYIF [YJL039C/NUP192] here?
A: 1.85 ± 0.042

Q: Which protein stability index does the source give for FPEENIIDAKTRNEQTT [MCD1] here?
A: 3.08 ± 0.054

Q: With FPPNLEKGENPSCVYNL [UBP6] as the sequence, how does the protein stability index read?
A: 1.11 ± 0.064

Q: Which protein stability index does the source give for FQAVIQKSINHPPDFKR [SNF2] here?
A: 3.19 ± 0.11

Q: Which protein stability index does the source give for FQDTLYKKIPLLGPTLE [QCR10] here?
A: 2.95 ± 0.1

Q: With FRCKETHSYNFMRQNLE [RPC82] as the sequence, how does the protein stability index read?
A: 2.44 ± 0.065

Q: Which protein stability index does the source give for FSHPAHQQRMSRTAADI [YCG1] here?
A: 2.13 ± 0.06

Q: For FSHSLTTILSFSSPAAL [NUT1], which protein stability index is on record?
A: 1.32 ± 0.026

Q: With FSKFERSKSSHKNERRV [SKI6] as the sequence, how does the protein stability index read?
A: 3.25 ± 0.07

Q: For FSNVELPQCIIPSSYIK [ARP7], which protein stability index is on record?
A: 2.45 ± 0.032

Q: With FSQEALQYVVERVGKRT [FAS1] as the sequence, how does the protein stability index read?
A: 1.17 ± 0.09

Q: With FSSNLSYANHLEESDVE [YOR098C/NUP1] as the sequence, how does the protein stability index read?
A: 1.89 ± 0.052
